The source of these data is article doi:10.1101/2020.03.23.004119 (bioRxiv, 2020).

The data set concerns the molecule itself. The experiment in a line: two-hybrid.

B1: hPFKFB4 mammalian two-hybrid fusion (pBind-PFKFB4 and pAct-PFKFB4) (enzyme, human, UniProt Q16877 1-469, looked up)
chain: MASPRELTQNPLKKIWMPYSNGRPALHACQRGVCMTNCPTLIVMVGLPARGKTYISKKLTRYLNWIGVPTREFNVGQYRRDVVKTYKSFEFFLPDNEEGLKIRKQCALAALRDVRRFLSEEGGHVAVFDATNTTRERRATIFNFGEQNGYKTFFVESICVDPEVIAANIVQVKLGSPDYVNRDSDEATEDFMRRIECYENSYESLDEDLDRDLSYIKIMDVGQSYVVNRVADHIQSRIVYYLMNIHVTPRSIYLCRHGESELNLKGRIGGDPGLSPRGREFAKSLAQFISDQNIKDLKVWTSQMKRTIQTAEALGVPYEQWKVLNEIDAGVCEEMTYEEIQDNYPLEFALRDQDKYRYRYPKGESYEDLVQRLEPVIMELERQENVLVICHQAVMRCLLAYFLDKAAEQLPYLKCPLHTVLKLTPVAYGCKVESIFLNVAAVNTHRDRPQNVDISRPPEEALVTVPAHQ
With B1, the “fold luciferase expression over the negative controls” value came to 6 fold.
